Measurements published in patent US20240343811A1 (SHANDONG SIMCERE BIOPHARMACUTICAL, published 2024).

T1: human CD16b (NA1), full length, on FlpinCHO cells (human, UniProt O75015 17-200)
T1 construct: also called FlpinCHO-human CD16b (NA1)
T1 chain: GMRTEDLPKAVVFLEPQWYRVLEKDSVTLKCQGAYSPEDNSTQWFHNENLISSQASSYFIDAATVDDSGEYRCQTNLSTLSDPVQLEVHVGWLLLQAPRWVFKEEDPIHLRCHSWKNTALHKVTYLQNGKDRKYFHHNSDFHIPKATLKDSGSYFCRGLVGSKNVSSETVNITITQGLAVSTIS

T2: human CD16b (NA2), full length, on FlpinCHO cells (human, UniProt O75015 17-200)
T2 construct: also called FlpinCHO-human CD16b (NA2)
T2 chain: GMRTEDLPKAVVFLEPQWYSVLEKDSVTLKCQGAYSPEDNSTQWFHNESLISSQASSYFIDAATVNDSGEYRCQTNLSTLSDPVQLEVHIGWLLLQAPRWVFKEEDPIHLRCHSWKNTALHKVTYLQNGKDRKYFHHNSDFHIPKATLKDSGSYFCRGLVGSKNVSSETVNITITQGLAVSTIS

T3: Human CD16b (NA1)-his (human)
T3 construct: entry holds ECD, linker, His tag and AVI tag
T3 chain: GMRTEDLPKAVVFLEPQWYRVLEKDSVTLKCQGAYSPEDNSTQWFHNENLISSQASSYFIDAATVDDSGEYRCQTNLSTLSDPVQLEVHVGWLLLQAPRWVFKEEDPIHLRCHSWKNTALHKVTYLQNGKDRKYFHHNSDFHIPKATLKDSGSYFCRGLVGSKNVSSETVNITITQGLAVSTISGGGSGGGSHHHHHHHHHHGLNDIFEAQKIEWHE


Columns and labels:
[1] = target: T4, cynomolgus monkey CD16, full length, on FlpinCHO cells (cynomolgus monkey, UniProt Q8SPW2 17-254); test: FACS on FlpinCHO cells
T4 construct: also called FlpinCHO-cyno CD16; Flipin CHO-cyno CD16
T4 sequence (Q8SPW2 other isoform, or with tags, fused parts or gaps limits assumed): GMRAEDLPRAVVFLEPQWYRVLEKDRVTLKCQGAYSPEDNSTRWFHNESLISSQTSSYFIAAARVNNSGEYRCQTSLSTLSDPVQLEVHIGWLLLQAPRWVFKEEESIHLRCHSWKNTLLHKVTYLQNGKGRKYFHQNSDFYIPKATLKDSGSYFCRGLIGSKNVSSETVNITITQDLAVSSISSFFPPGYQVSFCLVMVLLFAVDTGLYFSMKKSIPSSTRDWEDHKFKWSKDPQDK
Experimental: The required cells were scale-up cultured in a T-75 cell culture flask to the logarithmic growth phase. The medium was aspirated, and the cells were washed twice with a PBS buffer and then digested with trypsin. After the digestion was terminated, the cells were washed twice with the PBS buffer. The cells were counted, and then the cell pellet was resuspended with a [PBS+2% (w/w) BSA] blocking solution to 2×10⁶ cells/ml, and added to a 96-well FACS reaction plate at 50 μl/well. […] 50 μl/well of the antibody to be detected was added at different concentrations, and incubated on ice for 1 hour. […] The mixture was centrifuged and washed 5 times with PBS, and FACS (FACS Canto II, purchased from BD Company) was used for detection and result analysis. Data analysis was performed by software (CellQuest) to obtain the mean fluorescence intensity (MFI) of the cells. Then, software (GraphPad Prism8) was used for analysis, data fitting and EC50 value calculation.
Flipin CHO-cyno CD16 cells were subjected to FACS detection and data analysis according to the method of Example 3.1.

[2] = target: T5, CD16 on primary human NK cells (human, UniProt P08637 17-254); test: FACS on human NK cells
T5 construct: whole, on cells; also called resting NK cells
How it was run: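 EC50 came from curve fitting of flow-cytometric MFI. Antibody titrations were bound for 1 hour on ice to fresh human NK cells blocked in PBS with 2% (w/w) BSA (2×10⁶ cells/ml), followed by five PBS washes before acquisition.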

[3] = target: T6, human CD16a (158V), full length, on cells (human, UniProt P08637 17-254); test: cell-based or functional assay
[4] = target: T7, human CD16a (158F), full length, on FlpinCHO cells (human, UniProt P08637 17-254); test: FACS on FlpinCHO cells
How it was run: (§1)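 EC50 comes from fitted concentration–MFI curves. Antibody dilutions were bound to the cells for 1 hour on ice in PBS blocking buffer with 2% BSA, followed by washing and flow cytometric readout.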

[5] = target: T6, human CD16a (158V), full length, on …; test: FACS on FlpinCHO cells
How it was run: as §1

[6] = target: T7, human CD16a (158F), full length, on …; test: FACS, biotinylated antibody
[7] = target: T6, human CD16a (158V), full length, on …; test: FACS, biotinylated antibody
[8] = target: T8, Human CD16a (158F)-his (human); test: SPR (Biacore), antibody captured on Protein A
T8 construct: entry holds ECD, AVI tag, linker and His tag
How it was run: (§2)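 Protein A–captured antibody was probed with CD16-his ECD in HBS-EP+ at 25 °C: five 2-fold dilutions from 200 nM, 240 s at 30 μL/min, dissociation up to 600 s. Glycine pH 1.5 regenerated the chip. Apparent KD came from a double-referenced 1:1 Langmuir fit.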

[9] = target: T9, Human CD16a (158V)-his (human); test: SPR (Biacore), antibody captured on Protein A
T9 construct: entry holds ECD, AVI tag, linker and His tag
How it was run: as §2

[10] = target: T7, human CD16a (158F), full length, on …; test: FACS, biotinylated antibody, +10 mg/mL human immunoglobulin
[11] = target: T6, human CD16a (158V), full length, on …; test: as above
[12] = target: T1, human CD16b (NA1), full length, on …; test: FACS on FlpinCHO cells
How it was run: (§3)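 EC50 values come from fitted MFI curves measured by FACS. Antibody dilutions were bound for 1 hour on ice to CD16b-transfected FlpinCHO cells suspended in PBS with 2% BSA blocking solution.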

[13] = target: T2, human CD16b (NA2), full length, on …; test: FACS on FlpinCHO cells
How it was run: as §3

[14] = target: T5, CD16 on primary human NK cells; test: FACS on human NK cells, biotinylated antibody, +10 mg/mL human immunoglobulin
[15] = target: T5, CD16 on primary human NK cells; test: FACS on human NK cells, biotinylated antibody
[16] = target: T3, Human CD16b (NA1)-his; test: SPR (Biacore), antibody captured on Protein A
How it was run: as §2

Binder	EC50 [2] [nM]	Maximum mean fluorescence intensity [2]	EC50, activation activity for Jurkat cell [3] [nM]	Maximum fluorescence value [3]	EC50 [4] [nM]	Maximum mean fluorescence intensity [4]	EC50 [5] [nM]	Maximum mean fluorescence intensity [5]	EC50 [6] [nM]	Maximum mean fluorescence intensity [6]	EC50 [7] [nM]	Maximum mean fluorescence intensity [7]	Kd [8] [nM]	koff [8] [s⁻¹]	kon [8] [M⁻¹ s⁻¹]	Kd [9] [nM]	koff [9] [s⁻¹]	kon [9] [M⁻¹ s⁻¹]	EC50 [10] [nM]	Maximum mean fluorescence intensity [10]	other results
VHH13 VHH-Fc antibody (Fc fusion) EVQVVESGGGLVQAGGSLRLSCAASGITFSSYAMGWYRQAPGKQRELVAAINRFGLTNYADSVKGRFTISRDNAKSTVYLQMTSLKPEDTAVYYCNTGGVYSHPDYYTGTYWGQGTQVTVSSEPKSSDKTHTCPPCPAPEFEGGPSVFLFPPKPKDTLMISRTPEVTCVVVAVSHEDPEVKFNWYVDGVEVHNAKTKPREEQYNSTYRVVSVLTVLHQDWLNGKEYKCKVSNKALPAPIEKTISKAKGQPREPQVYTLPPSREEMTKNQVSLTCLVKGFYPSDIAVEWESNGQPENNYKTTPPVLDSDGSFFLYSKLTVDKSRWQQGNVFSCSVMHEALHNHYTQKSLSLSPGK	0.15	2630	0.02	165000	0.18	6020	0.24	6660	0.16	6240	0.25	9620	22.2	0.0192	866000	19.8	0.0362	1.83e+06	0.67	5830	EC50 [1]: 0.24 nM; Maximum mean fluorescence intensity [1]: 21400; EC50 [11]: 1.09 nM; Maximum mean fluorescence intensity [11]: 9660; EC50 [12]: 0.77 nM; Maximum mean fluorescence intensity [12]: 51400; EC50 [13]: 1.11 nM; Maximum mean fluorescence intensity [13]: 70200
VHH05 VHH-Fc antibody (Fc fusion) QVQLVESGGGLVQAGGSLRLSCVASSSTVTTYAVRWYRQAPGKQREWVAFISVDGNTNYPDSVKGRFIVSRDNAKNTVYLQMNSLKPEDTADYICRAGGQYWGQGTQVTVSSEPKSSDKTHTCPPCPAPEFEGGPSVFLFPPKPKDTLMISRTPEVTCVVVAVSHEDPEVKFNWYVDGVEVHNAKTKPREEQYNSTYRVVSVLTVLHQDWLNGKEYKCKVSNKALPAPIEKTISKAKGQPREPQVYTLPPSREEMTKNQVSLTCLVKGFYPSDIAVEWESNGQPENNYKTTPPVLDSDGSFFLYSKLTVDKSRWQQGNVFSCSVMHEALHNHYTQKSLSLSPGK	0.62	2560	0.03	171000	0.49	7320	0.53	8100	0.33	8780	0.74	12400	8.16	0.000499	61200	3.73	0.000321	86100	1.51	10000	EC50 [14]: 2.94 nM; Maximum mean fluorescence intensity [14]: 72800; EC50 [15]: 1.15 nM; Maximum mean fluorescence intensity [15]: 63200; Kd [16]: 9.28 nM; koff [16]: 0.000958 s⁻¹; kon [16]: 103000 M⁻¹ s⁻¹; EC50 [11]: 1.7 nM; Maximum mean fluorescence intensity [11]: 13300; EC50 [12]: 0.96 nM; Maximum mean fluorescence intensity [12]: 42500
